Experiments:
[1] = system: COLO 205 tumour cells xenografted into nude mice; test: In vivo COLO 205 xenograft study; design: species or system athymic NMRI nude mice; conditions: 50 mg/kg 5FU alone, once weekly, FIG. 7
Procedure: Female athymic NMRI nude mice, 6-8 weeks old, are inoculated subcutaneously in the right flank with the COLO 205 human colon tumour-derived cell line (ATCC #CCL-222) (5×10^6 in 100 μl Ringer solution). Tumour cell growth is assessed by measuring tumour volume three times per week using calipers and the formula: π/6× larger diameter×(smaller diameter)^2. Treatment is administered intravenously to groups of ten mice and commenced when tumours have developed to a size of between 130 to 270 mm^3. The treatment schedule consists of two times weekly intravenous infusions of vehicle and antibody 40186 at a dose of 25 mg/kg for two treatment cycles. In combinations of antibody with 5FU, a dose of 50 mg/kg 5FU is administered weekly. The study is terminated when tumours reached an average size of 1500 mm^3. All animal experiments are performed according to the legal requirements in Austria as well as guidelines of the American Association for Laboratory Animal Science (AALAS).

[2] = cynomolgus monkeys; cited from earlier work
[3] = humans; cited from earlier work
human IGF-1 = biological target: T1, human IGF-1 (Homo sapiens, UniProt P05019); test: ELISA binding titration of IgG1 antibodies; conditions: FIG. 1A
T1 construct: Insulin-like growth factor-1 (IGF-1; a 70 amino-acid polypeptide)
Procedure: (§1) ELISA screening for IGF-1 positive Fab clones is performed by coating Maxisorb 384-well plates overnight at 4° C. with 5 μg/ml recombinant human IGF-1 (Gropep) in 1× coating buffer (Gibco). Wells are washed with 1×TBS-T and blocked with 1× Blocking Buffer (Gibco) for 1 h at room temperature. Bacterial lysates containing antibody Fab fragments are added for 1.5 hr at room temperature, then washed five times with 1×TBS-T and detected with Alkaline Phosphatase-conjugated Affini Pure Goat Anti-HumanIgG F(ab′)2. Fragment Specific Mab (Dianova) at a dilution of 1:10 000 and visualized with Attophos Substrate (Roche). Fluorescence readings are performed on Tecan fluorescence reader at excitation 430 nm and emission 535 nm.
(§2) Cross-reactivity to recombinant human IGF-1, murine IGF-1, murine IGF-2 (R&D Systems), recombinant human IGF-2, rat IGF-1, rat IGF-2 (Gropep) and recombinant human insulin (Roche) is performed by ELISA using the same procedure as above, but with a 1 μg/ml coating dilution.

human IGF-2 = biological target: T2, human IGF-2 (Homo sapiens, UniProt P01344); test: ELISA binding titration of IgG1 antibodies; conditions: FIG. 1B
T2 construct: insulin-like growth factor-2 (IGF-2; a 67 amino-acid polypeptide)
Procedure: as §1, §2

murine IGF-1 = biological target: T3, murine IGF-1 (Mus musculus, UniProt P05017); test: ELISA binding titration of IgG1 antibodies; conditions: FIG. 1C
T3 construct: Insulin-like growth factor-1 (IGF-1; a 70 amino-acid polypeptide); purchased R&D Systems
Procedure: as §1, §2

murine IGF-2 = biological target: T4, murine IGF-2 (Mus musculus, UniProt P09535); test: ELISA binding titration of IgG1 antibodies; conditions: FIG. 1D
T4 construct: insulin-like growth factor-2 (IGF-2; a 67 amino-acid polypeptide); purchased R&D Systems
Procedure: as §1, §2

rat IGF-1 = biological target: T5, rat IGF-1 (Rattus norvegicus, UniProt P08025); test: ELISA binding titration of IgG1 antibodies; conditions: FIG. 1E
T5 construct: Insulin-like growth factor-1 (IGF-1; a 70 amino-acid polypeptide)
Procedure: as §1, §2

rat IGF-2 = biological target: T6, rat IGF-2 (Rattus norvegicus, UniProt P01346); test: ELISA binding titration of IgG1 antibodies; conditions: FIG. 1F
T6 construct: insulin-like growth factor-2 (IGF-2; a 67 amino-acid polypeptide)
Procedure: as §1, §2

[4] = biological target: T7, biotinylated-IGF-1 binding to coated insulin-like growth factor-1 receptor (Homo sapiens, UniProt P05019); test: ELISA neutralization of biotinylated IGF-1 binding to coated IGF-1R
T7 construct: Insulin-like growth factor-1 (IGF-1; a 70 amino-acid polypeptide); purchased R&D Systems (IGF-1R)
Procedure: To identify IGF antibodies that neutralize the ability of IGF-1 and IGF-2 to bind to the IGF-1R, an ELISA is established by coating plates with 1.5 μg/ml recombinant human IGF-1R (R&D Systems) which allows the binding of biotinylated IGF-1 and biotinylated IGF-2. Bound IGF-1 or IGF-2 is detected using alkaline phosphatase-conjugated streptavidin (1:10,000 dilution) (Roche). The neutralization potency of antibody Fab fragments is measured by adding 0.1-1 μg/ml of Fab to the wells coated with IGF-1R just prior to the addition of biotinylated IGF-1 or IGF-2 ligands. Antibody Fab fragments that block the binding of biotinylated ligand are identified by a reduction in fluorometric signal.

[5] = system: IGF-1 stimulated COLO 205 cell growth; test: COLO 205 cell growth assay (CellTiter-Glo); type: cell-based, human; conditions: 10 ng/ml IGF-1; antibody 5 and 30 μg/ml; 5 days; FIG. 3A
Procedure: (§3) The COLO 205 colon cancer-derived cell line (ATCC # CCL-222) is plated in 96-well plates at a cell density of 1000 cells per well in serum-free RPMI medium. 10 ng/ml of either IGF-1 or IGF-2 is added in the presence or absence of a control antibody or antibodies 40183 and 40186 at concentrations of 5 and 30 μg/ml. Cells are cultured for 5 days then the cell number in each well determined using the CellTiter-Glo luminescent cell viability assay (Promega). Luminescence was recorded using a XFluor GENios Pro 4.

[6] = system: IGF-2 stimulated COLO 205 cell growth; test: COLO 205 cell growth assay (CellTiter-Glo); type: cell-based, human; conditions: 10 ng/ml IGF-2; antibody 5 and 30 μg/ml; 5 days; FIG. 3B
Procedure: as §3

[7] = system: insulin stimulated COLO 205 cell growth; test: COLO 205 cell growth assay (CellTiter-Glo); type: cell-based, human; conditions: FIG. 3C

T5 sequence (P08025 49-118 limits assumed): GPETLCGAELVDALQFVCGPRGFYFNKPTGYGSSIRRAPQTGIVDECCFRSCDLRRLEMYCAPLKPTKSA
T6 sequence (P01346 25-91 limits assumed): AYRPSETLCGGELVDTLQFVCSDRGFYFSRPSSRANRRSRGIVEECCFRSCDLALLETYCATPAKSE

O=c1[nH]cc(F)c(=O)[nH]1 [5FU, 5-fluorouracil, reference compound]
decrease in median tumour growth [1]: 30%

bevacizumab
terminal half-life [2]: 206 ± 9.12 h
terminal half life [3]: approximately 20 days

B1: antibody 40183: fully human IgG1/Igλ anti-IGF antibody; variable heavy SEQ ID NO:18, variable light SEQ ID NO:20; constant regions as 40186 (antibody, listed as Homo sapiens, V domains shown)
VH: QVELVESGGGLVQPGGSLRLSCAASGFTWSSFAMSWVRQAPGKGLEWVSYISYLGSYTGYADSVKGRFTISRDNSKNTLYLQMNSLRAEDTAVYYCARGTKFDYWGQGTLVTVSS
VL: DIVLTQPPSVSGAPGQRVTISCTGSSSNIGTYDVHWYQQLPGTAPKLLIYSNSKRPSGVPDRFSGSKSGTSASLAITGLQSEDEADYYCSITRVFGGGTKLTVLG
modifications: IgG1/lambda constant regions
notes: fully human IgG1/Igλ anti-IGF antibody; constant regions as 40186
binding to human IGF-1 (ELISA) (human IGF-1): concentration dependent binding
binding to human IGF-2 (ELISA) (human IGF-2): concentration dependent binding
binding to murine IGF-1 (ELISA) (murine IGF-1): concentration dependent binding
binding to murine IGF-2 (ELISA) (murine IGF-2): concentration dependent binding
binding to rat IGF-1 (ELISA) (rat IGF-1): concentration dependent binding
binding to rat IGF-2 (ELISA) (rat IGF-2): concentration dependent binding
IC50, inhibition of IGF-1 ligand binding to IGF-1R ([4]; FIG. 2): approximately 5 ng/ml
IC50 ([4]; FIG. 2, read-out: IC50, inhibition of IGF-1 ligand binding to IGF-1R): ~0.03 nM
effect on IGF-1 induced COLO 205 cell growth [5]: dose dependent inhibition
effect on IGF-2 induced COLO 205 cell growth [6]: dose dependent inhibition
effect on insulin induced COLO 205 cell growth [7]: no effect

— US8580254B2, “Anti-IGF antibodies” (Boehringer Ingelheim International GmbH, priority 2007, dated 2013)
